Measurements reported in publication PMC9293207, “Impact of C‐terminal truncations in the Arabidopsis Rab escort protein (REP) on REP–Rab interaction and plant fertility” (The Plant Journal, 2021).

T1: Rab escort protein (REP), recombinant REP‐His (Arabidopsis thaliana, UniProt Q8LLD4 1-563)
T1 construct: Rab escort protein (REP) of Arabidopsis thaliana, wild type; Plasmid was a gift (Dr. Michal Hala); HDX‐MS peptides are reported from region 1–14 to beyond amino acid 534, so the whole protein was probably present; also called WT REP; AtREP; source: E. coli BL21(DE3)pLysS, purified (Ni‐NTA agarose, HiTrapQ, Superdex 75)
T1 sequence (looked up): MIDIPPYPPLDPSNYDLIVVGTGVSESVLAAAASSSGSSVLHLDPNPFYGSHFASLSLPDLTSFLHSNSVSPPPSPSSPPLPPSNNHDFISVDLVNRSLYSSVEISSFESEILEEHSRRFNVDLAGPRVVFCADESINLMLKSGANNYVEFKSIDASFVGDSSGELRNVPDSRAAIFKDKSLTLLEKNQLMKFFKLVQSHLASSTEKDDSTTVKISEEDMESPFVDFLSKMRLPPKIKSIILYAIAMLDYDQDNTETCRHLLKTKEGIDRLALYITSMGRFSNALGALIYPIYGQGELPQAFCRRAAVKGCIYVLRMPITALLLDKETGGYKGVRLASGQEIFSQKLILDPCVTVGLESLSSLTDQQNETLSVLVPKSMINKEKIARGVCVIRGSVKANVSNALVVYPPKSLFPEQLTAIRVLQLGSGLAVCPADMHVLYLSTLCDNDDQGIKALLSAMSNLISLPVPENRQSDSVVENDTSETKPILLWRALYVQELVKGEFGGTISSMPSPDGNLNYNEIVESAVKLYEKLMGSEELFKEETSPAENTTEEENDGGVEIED

T2: REPΔC‐His, truncated form of REP lacking 30 C‐terminal amino acids (Arabidopsis thaliana, UniProt Q8LLD4 1-533)
T2 construct: Rab escort protein (REP) of Arabidopsis thaliana lacking 30 C‐terminal amino acids; cloned from pGWB551‐REP with primers BP‐rep‐F and BP‐rep‐R into pET301/CT‐DEST; Gateway cloning (pDONR201, pET301/CT‐DEST) may add linker residues between REP and the His tag; also called truncated mutant; truncated REP version; source: E. coli BL21(DE3)pLysS, purified (Ni‐NTA agarose)
T2 sequence (looked up): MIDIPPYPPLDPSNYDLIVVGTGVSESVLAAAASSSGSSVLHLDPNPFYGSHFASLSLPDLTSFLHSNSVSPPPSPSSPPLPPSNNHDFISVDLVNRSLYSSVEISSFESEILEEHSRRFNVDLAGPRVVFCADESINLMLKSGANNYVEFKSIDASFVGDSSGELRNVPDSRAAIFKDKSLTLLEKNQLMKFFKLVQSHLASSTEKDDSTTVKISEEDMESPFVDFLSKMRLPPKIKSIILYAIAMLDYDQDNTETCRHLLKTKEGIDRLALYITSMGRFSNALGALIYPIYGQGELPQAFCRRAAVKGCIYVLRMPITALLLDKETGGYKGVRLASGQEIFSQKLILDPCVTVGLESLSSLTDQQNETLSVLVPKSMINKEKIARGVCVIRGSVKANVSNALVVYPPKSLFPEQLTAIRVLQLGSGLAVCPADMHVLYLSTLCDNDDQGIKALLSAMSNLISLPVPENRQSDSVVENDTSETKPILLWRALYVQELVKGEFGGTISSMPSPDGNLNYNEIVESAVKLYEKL


Experiments:
Conditions in all cases: both partners purified
[1] = target: T1, Rab escort protein (REP), recombinant …; experiment: HDX-MS; complexes of REP‐His with GST‐Rab from SEC against each protein alone (apo); 20 mM Tris‐DCl, 100 mM NaCl, 5 mM MgCl2, 1 mM GDP pH 7.5 in D2O; 10 sec, 1 min, 60 min; pepsin digestion; triplicate
[2] = target: T2, REPΔC‐His, truncated form of REP …; experiment: SEC; purified proteins diluted to 65 nM in 200 μl Tris 20 mM pH 7.5, 100 mM NaCl, 10 mM MgCl2, 1 mM DTT, 1.5 mM GDP, incubated 4 h at room temperature; Superdex 75 10/300 GL; fractions resolved by SDS‐PAGE
[3] = target: T1, Rab escort protein (REP), recombinant …; experiment: as above

Binder	binding result [1]	binding result [2]	binding result [3]
GST‐Rab‐F2b (natural protein, Arabidopsis thaliana, UniProt Q9SN68 1-200, looked up, Rab‐F2b of Arabidopsis thaliana, cloned from Col‐0 leaf cDNA into pGEX4T1 cut with SmaI; unprenylated; Used in the presence of GDP; source: E. coli BL21(DE3)pLysS, purified (Glutathione‐Sepharose 4B, Superdex 75)) MAAAGNKSINAKLVLLGDVGAGKSSLVLRFVKDQFVEFQESTIGAAFFSQTLAVNDATVKFEIWDTAGQERYHSLAPMYYRGAAAAIIVFDVTNQASFERAKKWVQELQAQGNPNMVMALAGNKSDLLDARKVTAEDAQTYAQENGLFFMETSAKTATNVKEIFYEIARRLPRVQPTENPTGMVLPDRAMDRAVSSSCCA	binds		
GST‐Rab‐D1 (natural protein, Rab‐D1 of Arabidopsis thaliana, cloned from Col‐0 leaf cDNA into pGEX4T1 cut with SmaI; unprenylated; Used in the presence of GDP; source: E. coli BL21(DE3)pLysS, purified (Glutathione‐Sepharose 4B, Superdex 75)) not shown	binds	binds	
Rab‐E1d cleaved from its GST tag (natural protein, Rab‐E1d of Arabidopsis thaliana, from GST‐Rab‐E1d (pGEX4T1, SmaI) after thrombin cleavage; A few vector‐derived residues probably remain at the end after thrombin cleavage; also called E1d no tag; untagged Rab‐E1d) not shown			binds
GST‐Rab‐E1d (natural protein, Rab‐E1d of Arabidopsis thaliana, cloned from Col‐0 leaf cDNA into pGEX4T1 cut with SmaI; unprenylated; Used in the presence of GDP; source: E. coli BL21(DE3)pLysS, purified (Glutathione‐Sepharose 4B, Superdex 75)) not shown		binds	binds
